Measurements taken from patent publication US20040166543.
Numbering of substitutions follows the chain as printed.

Columns and labels:
[1] = tested on: T1, MUC1/CD (purified hexahistidine tagged MUC1 cytoplasmic domain), unphosphorylated
T1 sequence: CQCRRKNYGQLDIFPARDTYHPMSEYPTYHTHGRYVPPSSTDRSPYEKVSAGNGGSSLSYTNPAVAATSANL

MUC1/CD(Y46F) = tested on: T2, MUC1/CD(Y46F)
T2 sequence: T1 sequence with Y46F

MUC1/CD (S40A/S44A) = tested on: T3, MUC1/CD (S40A/S44A)
T3 sequence: T1 sequence with S40A, S44A

MUC1/CD(S40A) = tested on: T4, MUC1/CD(S40A)
T4 sequence: T1 sequence with S40A

MUC1/CD(S44A) = tested on: T5, MUC1/CD(S44A)
T5 sequence: T1 sequence with S44A

MUC1/CD(T41A) = tested on: T6, MUC1/CD(T41A)
T6 sequence: T1 sequence with T41A

Substance	phosphorylation of MUC1/CD ([γ-32P]ATP, SDS-PAGE, autoradiography) [1]	phosphorylation of MUC1/CD(Y46F) ([γ-32P]ATP, autoradiography) (MUC1/CD(Y46F))	phosphorylation ([γ-32P]ATP, autoradiography) (MUC1/CD (S40A/S44A))	phosphorylation ([γ-32P]ATP, autoradiography) (MUC1/CD(S40A))	phosphorylation ([γ-32P]ATP, autoradiography) (MUC1/CD(S44A))	phosphorylation ([γ-32P]ATP, autoradiography) (MUC1/CD(T41A))
purified c-Src polypeptide (Oncogene Research Products)	demonstrated c-Src-mediated phosphorylation of MUC1/CD	Incubation of MUC1/CD(Y46F) with c-Src demonstrated a decrease in phosphorylation as compared to that found with wild-type MUC1/CD	–	–	–	–
purified recombinant PKCδ (PanVera / Calbiochem-Novabiochem)	demonstrated phosphorylation of MUC1 CD	–	phosphorylation of MUC1 by PKCδ was unaffected by S to A mutations of either or both of the flanking serines	phosphorylation of MUC1 by PKCδ was unaffected by S to A mutations of either or both of the flanking serines	phosphorylation of MUC1 by PKCδ was unaffected by S to A mutations of either or both of the flanking serines	PKCδ-mediated phosphorylation of MUC1/CD(T41A) was attenuated compared to that obtained with wild-type MUC1/CD
